B1: RPAIN (parent)
chain: ISEYEKSLQFDEKCLSIMLAEWEA
B2: GALNT9 (parent)
chain: FTQSGPIVSRATGRCLEVEMSKDA

Variants of: B1
Assay: protein stability index of a GFP-peptide fusion (GPS, HEK-293T) (PSI 1-6); higher = more stable
Settings: c terminus: a fixed tail appended
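Also: lentivirally expressed fusions sorted by FACS into six bins by GFP to DsRed ratio, PSI derived from sequencing read proportions per bin multiplied by bin number.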

Protein stability index of substitutions, site by site:
I1: T 3.12 | M 2.42 | D 2.6 | R 2.41 | A 2.29 | F 1.34 | Y 1.48 | L 1.64 | S 1.8 | W 1.26 | G 1.86 | Q 2.64 | N 1.69 | K 2.56 | V 2.15 | P 2.04 | E 2.04 | H 2.15
E3: H 1.99 | Q 2.05 | S 1.68 | R 2.4 | T 2.91 | N 3.69 | I 1.74 | C 1.44 | D 1.81 | M 1.82 | V 2.93 | L 1.54 | G 1.41 | W 3.76 | K 2.4 | A 2.31 | Y 3.23 | P 1.42
K6: T 1.92 | E 1.78 | C 2.67 | A 2.2 | N 1.91 | L 1.2 | V 1.16 | R 2.39 | W 1.79 | H 1.97 | S 1.34 | D 2.07 | M 1.73 | Q 2.06 | G 1.15
Y4: K 2.1 | I 2.15 | F 1.86 | N 2.15 | S 1.77 | D 2.12 | A 2.48 | M 2.15 | T 2.5 | C 1.75 | G 1.83 | W 1.92 | P 1.41 | Q 1.8 | H 2.06 | L 2.33 | E 2.13
E5: M 2.08 | K 2.81 | C 2.24 | T 1.58 | L 2.02 | V 2.51 | I 1.75 | Y 2.3 | S 1.82 | Q 1.92 | N 1.51 | D 1.55 | W 1.23 | R 1.32 | P 2.33
S2: A 2.2 | L 2.1 | C 1.41 | H 1.5 | Q 1.81 | W 2.59 | E 1.16 | T 1.91 | M 2.15 | Y 2.54 | D 1.97 | P 2.04 | N 2.18 | I 1.79 | G 1.72 | F 1.7
S7: N 1.8 | E 1.48 | G 1.67 | D 1.93 | P 1.47 | M 1.56 | H 2.7 | I 1.6 | K 1.38 | L 1.44 | W 2 | F 2.08 | R 1.69 | Q 2.13 | Y 1.76 | C 2.46
L8: A 2.63

Variants of: B2
Assay: as above
Settings: c terminus: a fixed tail appended

Protein stability index of substitutions, site by site:
T12: H 1.58 | P 2.05 | V 1.51 | S 1.78 | I 1.89 | A 3.14 | Y 2.47 | M 1.48 | K 2.15 | N 2.4 | Q 1.56 | R 2.04 | E 3.19 | D 2.38 | L 1.64
E17: P 2.05 | Q 2.94 | D 1.91 | R 5.49 | C 1.84 | F 3.92 | K 2.41 | N 3.09 | V 1.24 | Y 3.5 | G 2.09 | S 2.15 | A 1.03
V18: M 1.92 | R 1.94 | Y 1.94 | L 1.79 | F 2.61 | K 3.26 | I 2.32 | W 1.74 | T 2.02 | P 2.59 | H 1.81 | N 2.55 | Q 2.31 | E 1.01 | A 1.61 | D 2.53
M20: Q 3.23 | W 1.55 | A 3.61 | N 3.34 | E 3.66 | G 3.21 | F 1.93 | C 1.89 | I 2.28 | H 2.65 | D 4.53 | P 3.38 | R 2.73 | T 3.24 | L 3.75 | S 3.05 | V 2.18 | K 2.32 | Y 2.46
A24: F 1.34 | H 2.43 | L 2.35 | V 1.68 | E 2.64 | N 2.78 | C 2.34 | M 1.51 | R 2.2 | P 3.19 | T 2.3 | Y 1.75 | D 2.51 | I 1.89
R14: S 1.98 | K 1.95 | A 2.84 | Y 1.82 | C 1.78 | N 2.88 | T 1.99 | H 2.06 | V 1.71 | F 1.61 | L 1.9 | P 3.1 | I 2.78 | E 3.03
D23: E 2.44 | Y 2.52 | V 2.02 | S 2.67 | P 1.92 | T 1.84 | G 1.79 | I 1.57 | L 2.07 | K 1.84 | Q 1.95 | N 2.42 | C 1.51 | H 2.3
E19: V 1.45 | M 3.89 | I 1.71 | D 2.02 | L 2.39 | H 1.62 | R 3.07 | T 1.22 | P 2.57 | A 2.49 | Y 1.53 | G 2.19 | F 2.37 | N 1.62 | S 1.35 | K 2.33
R10: M 1.48 | Q 3.02 | P 2.49 | N 2.01 | Y 2.44 | S 3.5 | T 2.5 | V 2.6
S21: T 2.15 | G 1.21 | Q 1.34 | N 1.79 | K 1.82 | E 2.71 | C 1.47 | H 1.76 | R 3.38 | D 1.63 | L 1.74 | F 1.86 | V 2.05 | I 1.07 | P 2.55
G13: I 1.14 | R 2.6 | K 1.91 | Q 1.55 | T 2.16 | D 3.13 | Y 4.09 | P 1.81 | M 1.45 | A 1.86 | N 2.41 | F 2.15 | V 1.81 | H 1.99 | S 1.76 | E 2.76
A11: R 1.65 | F 1.06 | D 3.15 | P 2.31 | G 1.95 | K 1.83 | T 2.24 | S 1.77 | I 1.67 | Y 3.67 | M 1.73
C15: Q 3.14 | V 3.06 | I 2.7 | N 3.75 | P 3.11 | H 3.37 | R 3.86 | Y 3.04 | D 3.9 | K 2.53 | T 2.99 | M 2.78 | L 4.19 | S 2.7 | F 2.44
L16: C 2.08 | P 3.02 | V 2.33 | E 3.65 | G 2.52 | N 3.04 | H 2.81 | A 1.96 | I 1.4 | Q 2.81 | Y 1.99 | F 2.37 | M 2.29 | S 1.75 | K 2.27 | T 3.25 | R 3.09 | D 3.53 | W 2.35
K22: D 3.38 | P 3.13 | L 1.95 | C 2.56 | H 1.76 | I 1.71 | Y 2.62 | S 2.12 | A 3.13 | G 2.7 | Q 2.26 | R 1.32 | N 2.74

From the supplement of paper PMC10567573
